Seven molecules from patent US20210130452A1 (Merck KGaA, published 2021) can be followed below.

For assay [1], the target named is T1, human IL-17F (human, UniProt Q96PD4 31-163).
T1 construct: made in Hek293 cells (GenBank AF384857); also called hIL-17F; hIL17F
T1 sequence: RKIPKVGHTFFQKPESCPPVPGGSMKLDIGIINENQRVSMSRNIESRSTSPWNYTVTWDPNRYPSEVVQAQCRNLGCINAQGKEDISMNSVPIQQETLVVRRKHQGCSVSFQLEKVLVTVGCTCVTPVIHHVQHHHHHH
Briefly: SPR (Biacore) off-rate.

Assay [2] has as its target T2, human IL-17A/F heterodimer (human, UniProt Q16552 24-155; Q96PD4 31-163, limits assumed).
T2 construct: bought, made in E. coli (R&D Systems 5194-IL/CF); also called hIL-17A/F; hIL17A/F
Briefly: SPR (Biacore) off-rate. On the technique in general: Surface plasmon resonance follows binding to a sensor surface in real time, without labels.

Another assay addresses T3, rat IL-17F (rat, UniProt Q5BJ95 29-161).
T3 sequence (looked up): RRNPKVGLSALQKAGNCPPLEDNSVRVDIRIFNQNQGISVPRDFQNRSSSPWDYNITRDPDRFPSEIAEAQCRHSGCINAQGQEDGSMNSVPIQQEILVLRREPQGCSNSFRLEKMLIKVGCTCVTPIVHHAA
Briefly: ELISA, coated IL-17F.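 Note: binding ELISA on coated antigen from various species, with bound Nanobodies revealed by an HRP-linked anti-myc antibody and esTMB substrate.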 Background: In an ELISA, binding on a coated surface is turned into a signal by an enzyme label.

The next assay addresses T4, mouse IL-17F (mouse, UniProt Q7TNI7 29-161).
T4 sequence (looked up): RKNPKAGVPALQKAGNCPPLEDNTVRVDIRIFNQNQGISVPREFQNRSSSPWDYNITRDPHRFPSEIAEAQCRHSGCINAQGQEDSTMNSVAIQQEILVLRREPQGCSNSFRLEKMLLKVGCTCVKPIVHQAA
Briefly: ELISA, coated IL-17F.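 Note: binding ELISA on coated antigen from various species, with bound Nanobodies revealed by an HRP-linked anti-myc antibody and esTMB substrate.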

Assay [3] deals with T5, human IL-17F (human, UniProt Q96PD4 31-163).
T5 construct: GenBank AF384857, expressed in Hek293 as 6-His C-terminal tagged protein; also called hIL-17F; IL-17F-6HIS
T5 sequence: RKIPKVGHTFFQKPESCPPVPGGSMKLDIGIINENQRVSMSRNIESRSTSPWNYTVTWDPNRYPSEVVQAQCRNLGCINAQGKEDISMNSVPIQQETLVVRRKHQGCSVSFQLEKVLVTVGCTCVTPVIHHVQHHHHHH
In words: ELISA, coated IL-17F.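 Note: binding ELISA on coated antigen from various species, with bound Nanobodies revealed by an HRP-linked anti-myc antibody and esTMB substrate.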
Experimental: (§1) Binding of a selected panel of anti-IL-17 Nanobodies to IL-17 of other species was assessed using a binding ELISA. […] HRP (horseradish peroxidase) conjugated anti-myc (Serotec, MCA 2200P) was used for detection using esTMB as substrate.

For a further assay, the target named is T6, marmoset IL-17F (marmoset, UniProt A6N6I9 31-163).
T6 sequence (looked up): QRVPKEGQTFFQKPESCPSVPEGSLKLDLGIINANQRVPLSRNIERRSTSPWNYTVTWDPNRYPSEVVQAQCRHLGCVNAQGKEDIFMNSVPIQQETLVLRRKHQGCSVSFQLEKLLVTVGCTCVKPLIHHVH
Briefly: ELISA, coated IL-17F.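 Note: binding ELISA on coated antigen from various species, with bound Nanobodies revealed by an HRP-linked anti-myc antibody and esTMB substrate.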

For assay [4], the target named is T7, human IL-17A (human, UniProt Q16552 24-155).
T7 construct: secreted form (GenBank U32659) expressed in Hek293 with C-terminal 6-His; also called hIL-17A; IL-17A-6HIS
T7 sequence (Q16552 other isoform, or with tags, fused parts or gaps): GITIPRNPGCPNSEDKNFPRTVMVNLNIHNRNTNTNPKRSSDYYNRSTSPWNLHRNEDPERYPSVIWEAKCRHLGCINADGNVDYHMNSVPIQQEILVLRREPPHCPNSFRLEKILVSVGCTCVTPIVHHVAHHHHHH
In words: SPR, IL-17A-Nanobody complex over captured IL-17RA.
Text: The receptor (IL-17RA or IL-17RC) was captured via its human Fc-tail by an anti-human IgG-Fc antibody coated on the chip.

The next assay addresses T8, rat IL-17A (rat, UniProt Q61453 18-150, limits assumed).
T8 sequence (looked up): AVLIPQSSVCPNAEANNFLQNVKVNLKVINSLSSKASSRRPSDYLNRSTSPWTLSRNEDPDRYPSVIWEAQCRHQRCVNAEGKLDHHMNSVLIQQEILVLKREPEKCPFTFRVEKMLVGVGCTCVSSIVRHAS
Briefly: ELISA, coated IL-17A.

Assay [5] addresses T7, human IL-17A. In words: ELISA, coated IL-17A.
Experimental: as §1
A further assay addresses T9, mouse IL-17A (mouse, UniProt Q62386 26-158).
T9 sequence (looked up): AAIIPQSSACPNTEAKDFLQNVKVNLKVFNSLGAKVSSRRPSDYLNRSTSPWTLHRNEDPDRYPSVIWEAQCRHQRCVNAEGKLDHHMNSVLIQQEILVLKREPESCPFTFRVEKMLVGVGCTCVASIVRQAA
In words: ELISA, coated IL-17A.

Another assay concerns the target guinea pig IL-17A (guinea pig). Briefly: ELISA, coated IL-17A.
The target of the next assay is T10, marmoset IL-17A (marmoset, IL-17A is a disulfide-linked homodimer. One chain is given.).
T10 chain: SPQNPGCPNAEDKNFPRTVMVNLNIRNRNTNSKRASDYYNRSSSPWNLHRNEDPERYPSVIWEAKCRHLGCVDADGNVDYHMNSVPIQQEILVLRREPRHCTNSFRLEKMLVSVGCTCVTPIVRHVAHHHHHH
Briefly: ELISA, coated IL-17A.

Assay [6] concerns the target T11, human IL-17A/F heterodimer (human, UniProt Q16552 24-155; Q96PD4 31-163, limits assumed, biotinylated with Sulfo-NHS-LC-Biotin in the AlphaScreen assays only). Briefly: cell-based or functional assay.
Assay [7] has as its target T11, human IL-17A/F heterodimer. Briefly: AlphaScreen competition, hIL-17A/F - IL-17RA-Fc.
Experimental: (§2) To this mixture, the IL-17RA or IL-17RC Fc-fusions, Acceptor beads and the streptavidin Donor beads were added and further incubated for 1 hour at RT.
The target is the same in assay [8]. Briefly: SPR Biacore, hIL-17A/F on chip; purified protein.
Assay [9] has as its target T12, human IL-17A (human, UniProt Q16552 24-155, biotinylated with Sulfo-NHS-LC-Biotin in the AlphaScreen assays only). Briefly: cell-based or functional assay.
For assay [10], the target named is T12, human IL-17A. In words: AlphaScreen competition, hIL-17A - IL-17RA-Fc.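 Note: receptor Fc-fusion plus Acceptor and streptavidin Donor beads incubated with the mixture for 1 h at room temperature before reading.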 For orientation: Alpha assays give light when donor and acceptor beads are brought close together.
Experimental: as §2
In assay [11] the target is T12, human IL-17A. Briefly: AlphaScreen competition, hIL-17A - IL-17RC-Fc.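 Note: Read-out after 1 h at room temperature with the receptor Fc-fusion, Acceptor beads and streptavidin-coated Donor beads present.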
Experimental: as §2
The target of assay [12] is T13, human IL-17F (human, UniProt Q96PD4 31-163, biotinylated with Sulfo-NHS-LC-Biotin in the AlphaScreen assays only).
T13 construct: also called hIL-17F; recombinant human IL-17F
T13 sequence: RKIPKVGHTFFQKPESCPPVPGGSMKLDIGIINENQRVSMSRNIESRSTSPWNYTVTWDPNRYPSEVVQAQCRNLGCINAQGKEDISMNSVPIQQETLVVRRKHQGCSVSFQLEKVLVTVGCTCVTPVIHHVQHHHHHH
Briefly: AlphaScreen competition, hIL-17F - IL-17RC-Fc.
Experimental: as §2

Assay [13] concerns the target T11, human IL-17A/F heterodimer. In words: AlphaScreen competition, hIL-17A/F - IL-17RC-Fc.
Experimental: as §2
The target in assay [14] is T13, human IL-17F. Briefly: SPR Biacore, hIL-17F on chip; purified protein.
Experimental: (§3) Off-rates of the periplasmic extracts containing anti-IL-17 Nanobodies were measured by Surface Plasmon Resonance (SPR) using a Biacore T100 instrument. […] Periplasmic extracts containing IL-17 neutralizing Nanobodies were injected for 2 minutes at a flow rate of 45 μl/min to allow binding to chip-bound antigen. Next, binding buffer without periplasmic extracts was sent over the chip at the same flow rate to allow spontaneous dissociation of bound Nanobody. From the sensorgrams obtained for the different periplasmic extracts koff-values (k₄) were calculated.
For assay [15], the target named is T13, human IL-17F. In words: cell-based or functional assay.
Assay [16] deals with T13, human IL-17F. Briefly: AlphaScreen competition, hIL-17F - IL-17RA-Fc.
Experimental: as §2
Assay [17] addresses T12, human IL-17A. In words: SPR Biacore, hIL-17A on chip; periplasmic extract (*).
Experimental: as §3

T2 sequence (Q16552 24-155 limits assumed, chain 1 of 2, one chain of several): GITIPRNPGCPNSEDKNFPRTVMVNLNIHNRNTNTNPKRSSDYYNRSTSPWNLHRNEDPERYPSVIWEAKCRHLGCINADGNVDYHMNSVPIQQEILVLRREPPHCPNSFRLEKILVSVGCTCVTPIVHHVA
T11 sequence (Q16552 24-155 limits assumed, chain 1 of 2, one chain of several): as above
T12 sequence (Q16552 other isoform, or with tags, fused parts or gaps): as the sequence (Q16552 other isoform, or with tags, fused parts or gaps) above
Experimental for guinea pig IL-17A: as §1
Experimental for marmoset IL-17A: as §1
Experimental for marmoset IL-17F: as §1
Experimental for mouse IL-17A: as §1
Experimental for mouse IL-17F: as §1
Experimental for rat IL-17A: as §1
Experimental for rat IL-17F: as §1

B1: IL17MS3056 (VHH)
VHH: EVQLVESGGGLVQPGGSLRLSCAASGRTFSSYVVGWFRQAPGKEREFVGAISGSGDSIYYAVSEKDRFTISRDNSKNTLYLQMSSLRAEDTAVYYCTADQEFGYLRFGRSEYWGQGTLVTVSS
notes: variant of IL17MS16A04; Kabat numbering
As to B1, the koff worked out at 0.000514 s⁻¹ with human IL-17F [1] and 0.00288 s⁻¹ in assay [2].

B2: IL17MS3054 (VHH)
VHH: EVQLVESGGGLVQPGGSLRLSCAASGRTFSSYVVGWFRQAPGKEREFIGAISGSGDSIYYAVSEKDRFTISRDNSKNTLYLQMSSLRPEDTAVYYCTADQEFGYLRFGRSEYWGQGTLVTVSS
notes: as for B1
In the case of B2, the koff with human IL-17F [1] stood at 0.000459 s⁻¹; in assay [2], 0.00308 s⁻¹.

B3: IL17MS3055 (VHH)
VHH: EVQLVESGGGLVQPGGSLRLSCAASGRTFSSYVVGWFRQAPGKEREFIGAISGSGDSIYYAVSEKGRFTISRDNGKNTLYLQMNSLRAEDTAVYYCTADQEFGYLRFGRSEYWGQGTLVTVSS
For the molecule B3, the koff in the assay with human IL-17F [1] is 0.000493 s⁻¹; in assay [2] it was 0.00332 s⁻¹.

B4: 11A06 (VHH)
VHH: EVQLVESGGGLVQPGESLRLSCKASGFSLDYYALGWFRQAPGKEREGISCITSSDASAYYTDSVKGRFTISRDNSKNTVYLQMNSLKTEDTAIYYCAAALLTCSSYYDAYTYWGQGTQVTVSS
notes: Class 2
For the molecule B4, the OD in the assay with rat IL-17F amounted to 0.0045 OD; with mouse IL-17F it was 0.0455 OD; with human IL-17F [3] it was 0.673 OD; in the assay with marmoset IL-17F, 0.0225 OD; with rat IL-17A, 0.008 OD; in the assay with human IL-17A [5], 1.69 OD. Further, the OD in the assay with mouse IL-17A came out at 0.004 OD; with guinea pig IL-17A, 0.007 OD; in the assay with marmoset IL-17A it was 1.71 OD. For the same molecule, the “% Biacore binding (IL-17A-NB)-IL-17RA” value with human IL-17A [4] is -0.35%.

B5: 09G10 (VHH)
VHH: EVQLVESGGGLVQAGGSLRLSCAASDSVFTAKAVGWYRQPPGLQREWVAIITSGGKTNYADSSVKGRFTVSVDKVKNTVTLQMNSLKPEDTAVYYCYAQWMGRDYWGQGTQVTVSS
notes: Class 2
Turning to B5, the OD in the assay with rat IL-17F was 0.0025 OD; in the assay with human IL-17F [3], -0.018 OD; in the assay with marmoset IL-17F, 0.0045 OD; in the assay with rat IL-17A it was 0.003 OD; in the assay with human IL-17A [5], 1.64 OD; in the assay with mouse IL-17A, -0.001 OD. Besides, the OD with guinea pig IL-17A was 0.006 OD; with marmoset IL-17A it was 1.58 OD. For the same molecule, the “% Biacore binding (IL-17A-NB)-IL-17RA” value with human IL-17A [4] was 2.05%.

B6: 04B09 (VHH)
VHH: EVQLVESGGGLVQPGGSLRLSCAASGFTLGYYAIGWFRQAPGKEREGVSCDSSSDGDTYYANSVKGRFTISTDNGKNTVYLQMNSLKPEDTAVYYCATCTDWNYDYWGQGTQVTVSS
notes: Class 2
Turning to B6, the OD is 0.0015 OD in the assay with rat IL-17F; -0.015 OD in the assay with human IL-17F [3]; 0.0025 OD with marmoset IL-17F; 0.001 OD with rat IL-17A; 0 OD with mouse IL-17A; 0.006 OD with guinea pig IL-17A.

B7: 10A04 (VHH)
VHH: EVQLVESGGGLVQPGGSLRLSCAASGFTFSSYWMYWVRQAPGKGLEWISALAPGGGNRYYAESVNGRFTISRDNAKNSLYLQMNSLKSEDTAVYYCAKDHNVGYRTGEYDYGGQGTQVTVSS
notes: Class 4 Nanobody (cross-reactive: anti-IL-17A, IL-17F and IL-17A/F); not shown: c-myc, His6 tag
Regarding B7, the “IL-17A/F-induced IL-6 production in HT-1080 cells, Emax” value in assay [6] came out at 79.5%. Moreover, the “IL-17A/F-induced IL-6 production in HT-1080 cells, IC50” value in assay [6] came out at 122 nM. In addition, the IC50 was 37.7 nM in [7]; 78.1 nM with human IL-17A [10]; more than 250 nM with human IL-17A [11]; 0.22 nM with human IL-17F [12]; 15.6 nM in assay [13]; 0.746 nM in the assay with human IL-17F [16]. The koff in assay [8] was 0.015 s⁻¹; with human IL-17F [14], 0.0048 s⁻¹; with human IL-17A [17], less than 0.0002 s⁻¹. Besides, in the assay with human IL-17A [9], the “IL-17A-induced IL-6 production in HT-1080 cells, Emax” value is 31.5%. In the assay with human IL-17A [9], the “IL-17A-induced IL-6 production in HT-1080 cells, IC50” value amounted to 65.4 nM. For the same molecule, the “IL-17F-induced IL-6 production in HT-1080 cells, Emax” value in the assay with human IL-17F [15] amounted to 102%. Moreover, the “IL-17F-induced IL-6 production in HT-1080 cells, IC50” value with human IL-17F [15] was determined as 112 nM.

What is called koff is the rate constant with which the complex falls apart. What is called IC50 is the concentration that inhibits the measured activity by half. Low values mean higher potency, high ones lower potency.
